Reference: US10702592B2, “Peptides and combination of peptides for use in immunotherapy against NHL and other cancers” (Immatics Biotechnologies GmbH, priority 2016, dated 2020)

Each substance was assayed against HLA-A*02:01 (Homo sapiens, UniProt P04439, D140Y/D185E/D98H/E176V/E277Q/G131W/G231S/I119V/I121R/I166T/I218V/L300P/L318F/N151K/N90K/P208A/P217A/Q86G/Q94H/R138H/R169H/T345S) (assay: MHC binding assay (UV-ligand exchange, beta2m ELISA)). Conditions: binding to HLA-A*02:01, UV-ligand exchange.
Procedure, shortened: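 Exchange yield, UV-ligand exchange: 100-fold diluted samples on streptavidin plates, 1 h at 37 °C; HRP anti-β2m 1 h at 37 °C; TMB read at 450 nm.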

Q: How did the “Peptide exchange (MHC class I binding score, peptide exchange yield)” value (“Peptide exchange” below) turn out when “201 (YLNISQVNV; listed as Homo sapiens) [compound 201]” was run?
A: “+++” (≥50 = +++)

Q: For “202 (ALAAGGYDV; listed as Homo sapiens) [compound 202]”, which “Peptide exchange” value is on record?
A: “++” (≥20% = ++)

Q: For “203 (ILDTIFHKV; listed as Homo sapiens) [compound 203]”, which “Peptide exchange” value is on record?
A: “+++” (≥50 = +++)

Q: With “204 (RLCDIVVNV; listed as Homo sapiens) [compound 204]” as the substance, how does the “Peptide exchange” value read?
A: “++” (≥20% = ++)

Q: For “205 (TLFYESPHL; listed as Homo sapiens) [compound 205]”, which “Peptide exchange” value is on record?
A: “+++” (≥50 = +++)

Q: For “206 (SAVSGQWEV; listed as Homo sapiens) [compound 206]”, which “Peptide exchange” value is on record?
A: “++” (≥20% = ++)

Q: How did the “Peptide exchange” value turn out when “207 (GLVGLLEQA; listed as Homo sapiens) [compound 207]” was run?
A: “++++” (≥75% = ++++)

Q: Which “Peptide exchange” value does the source give for “208 (FLAVSLPLL; listed as Homo sapiens) [compound 208]” here?
A: “+++” (≥50 = +++)

Q: With “209 (FLLDTISGL; listed as Homo sapiens) [compound 209]” as the substance, how does the “Peptide exchange” value read?
A: “+++” (≥50 = +++)

Q: Which “Peptide exchange” value does the source give for “210 (FLAEQFEFL; listed as Homo sapiens) [compound 210]” here?
A: “+++” (≥50 = +++)

Q: For “211 (FIDDLFAFV; listed as Homo sapiens) [compound 211]”, which “Peptide exchange” value is on record?
A: “+++” (≥50 = +++)

Q: “212 (FLIGQGAHV; listed as Homo sapiens) [compound 212]” was tested. Which “Peptide exchange” value did it give?
A: “+++” (≥50 = +++)

Q: How did the “Peptide exchange” value turn out when “213 (YINEDEYEV; listed as Homo sapiens) [compound 213]” was run?
A: “++” (≥20% = ++)

Q: For “214 (FLFDGSMSL; listed as Homo sapiens) [compound 214]”, which “Peptide exchange” value is on record?
A: “+++” (≥50 = +++)

Q: For “215 (QLFEEEIEL; listed as Homo sapiens) [compound 215]”, which “Peptide exchange” value is on record?
A: “++” (≥20% = ++)

Q: With “216 (KVVSNLPAI; listed as Homo sapiens) [compound 216]” as the substance, how does the “Peptide exchange” value read?
A: “++” (≥20% = ++)

Q: Which “Peptide exchange” value does the source give for “217 (AQFGAVLEV; listed as Homo sapiens) [compound 217]” here?
A: “+++” (≥50 = +++)

Q: How did the “Peptide exchange” value turn out when “218 (ALDQFLEGI; listed as Homo sapiens) [compound 218]” was run?
A: “+++” (≥50 = +++)

Q: How did the “Peptide exchange” value turn out when “219 (ALLELENSV; listed as Homo sapiens) [compound 219]” was run?
A: “++” (≥20% = ++)

Q: “220 (FLAEAPTAL; listed as Homo sapiens) [compound 220]” was tested. Which “Peptide exchange” value did it give?
A: “++” (≥20% = ++)

Q: With “221 (FLAPDNSLLLA; listed as Homo sapiens) [compound 221]” as the substance, how does the “Peptide exchange” value read?
A: “++++” (≥75% = ++++)

Q: How did the “Peptide exchange” value turn out when “222 (FLIETGTLL; listed as Homo sapiens) [compound 222]” was run?
A: “+++” (≥50 = +++)

Q: With “223 (FLQDIPDGLFL; listed as Homo sapiens) [compound 223]” as the substance, how does the “Peptide exchange” value read?
A: “++” (≥20% = ++)

Q: With “224 (FLSPLLPLL; listed as Homo sapiens) [compound 224]” as the substance, how does the “Peptide exchange” value read?
A: “++” (≥20% = ++)

Q: Which “Peptide exchange” value does the source give for “226 (GVIDPVPEV; listed as Homo sapiens) [compound 226]” here?
A: “++” (≥20% = ++)

Q: “227 (IIAEGIPEA; listed as Homo sapiens) [compound 227]” was tested. Which “Peptide exchange” value did it give?
A: “++” (≥20% = ++)

Q: Which “Peptide exchange” value does the source give for “228 (IIAEYLSYV; listed as Homo sapiens) [compound 228]” here?
A: “++” (≥20% = ++)

Q: With “229 (ILSPWGAEV; listed as Homo sapiens) [compound 229]” as the substance, how does the “Peptide exchange” value read?
A: “++++” (≥75% = ++++)

Q: For “230 (IMDDDSYGV; listed as Homo sapiens) [compound 230]”, which “Peptide exchange” value is on record?
A: “++” (≥20% = ++)

Q: With “231 (IVMGAIPSV; listed as Homo sapiens) [compound 231]” as the substance, how does the “Peptide exchange” value read?
A: “+++” (≥50 = +++)

Q: Which “Peptide exchange” value does the source give for “232 (KVMEGTVAA; listed as Homo sapiens) [compound 232]” here?
A: “++” (≥20% = ++)

Q: Which “Peptide exchange” value does the source give for “233 (MLEVHIPSV; listed as Homo sapiens) [compound 233]” here?
A: “+++” (≥50 = +++)

Q: With “234 (NLQRTVVTV; listed as Homo sapiens) [compound 234]” as the substance, how does the “Peptide exchange” value read?
A: “++” (≥20% = ++)

Q: For “235 (SLDVYELFL; listed as Homo sapiens) [compound 235]”, which “Peptide exchange” value is on record?
A: “+++” (≥50 = +++)

Q: How did the “Peptide exchange” value turn out when “236 (SLFDGFFLTA; listed as Homo sapiens) [compound 236]” was run?
A: “++++” (≥75% = ++++)

Q: How did the “Peptide exchange” value turn out when “237 (YLDRLIPQA; listed as Homo sapiens) [compound 237]” was run?
A: “+++” (≥50 = +++)

Q: For “238 (YQYGAVVTL; listed as Homo sapiens) [compound 238]”, which “Peptide exchange” value is on record?
A: “+++” (≥50 = +++)

Q: How did the “Peptide exchange” value turn out when “239 (VLIDDTVLL; listed as Homo sapiens) [compound 239]” was run?
A: “+++” (≥50 = +++)

Q: For “240 (ALVPTPALFYL; listed as Homo sapiens) [compound 240]”, which “Peptide exchange” value is on record?
A: “+++” (≥50 = +++)

Q: Which “Peptide exchange” value does the source give for “241 (FIPDFIPAV; listed as Homo sapiens) [compound 241]” here?
A: “++” (≥20% = ++)

Q: With “242 (GILDFZVFL; listed as Homo sapiens) [compound 242]” as the substance, how does the “Peptide exchange” value read?
A: “++++” (≥75% = ++++)

Q: “243 (GLPDLDIYL; listed as Homo sapiens) [compound 243]” was tested. Which “Peptide exchange” value did it give?
A: “++++” (≥75% = ++++)

Q: For “244 (ILEPFLPAV; listed as Homo sapiens) [compound 244]”, which “Peptide exchange” value is on record?
A: “+++” (≥50 = +++)

Q: Which “Peptide exchange” value does the source give for “245 (KLIQLPVVYV; listed as Homo sapiens) [compound 245]” here?
A: “+++” (≥50 = +++)

Q: For “246 (KLPVPLESV; listed as Homo sapiens) [compound 246]”, which “Peptide exchange” value is on record?
A: “+++” (≥50 = +++)

Q: “247 (KVLEMETTV; listed as Homo sapiens) [compound 247]” was tested. Which “Peptide exchange” value did it give?
A: “+++” (≥50 = +++)

Q: Which “Peptide exchange” value does the source give for “248 (NLLEQFILL; listed as Homo sapiens) [compound 248]” here?
A: “+++” (≥50 = +++)

Q: Which “Peptide exchange” value does the source give for “249 (VLLESLVEI; listed as Homo sapiens) [compound 249]” here?
A: “++++” (≥75% = ++++)

Q: How did the “Peptide exchange” value turn out when “250 (VLTNVGAAL; listed as Homo sapiens) [compound 250]” was run?
A: “+++” (≥50 = +++)

Q: Which “Peptide exchange” value does the source give for “251 (VLYELFTYI; listed as Homo sapiens) [compound 251]” here?
A: “+++” (≥50 = +++)

Q: For “252 (YLGDLIMAL; listed as Homo sapiens) [compound 252]”, which “Peptide exchange” value is on record?
A: “+++” (≥50 = +++)

Q: With “255 (GMWNPNAPVFL; listed as Homo sapiens) [compound 255]” as the substance, how does the “Peptide exchange” value read?
A: “++++” (≥75% = ++++)

Q: How did the “Peptide exchange” value turn out when “257 (FLQEWEVYA; listed as Homo sapiens) [compound 257]” was run?
A: “++++” (≥75% = ++++)

Q: Which “Peptide exchange” value does the source give for “259 (TVLDGLEFKV; listed as Homo sapiens) [compound 259]” here?
A: “++++” (≥75% = ++++)

Q: How did the “Peptide exchange” value turn out when “263 (GLMDNEIKV; listed as Homo sapiens) [compound 263]” was run?
A: “+++” (≥50 = +++)

Q: With “264 (ILTGTPPGV; listed as Homo sapiens) [compound 264]” as the substance, how does the “Peptide exchange” value read?
A: “+++” (≥50 = +++)

Q: “265 (ILWHFVASL; listed as Homo sapiens) [compound 265]” was tested. Which “Peptide exchange” value did it give?
A: “++++” (≥75% = ++++)

Q: Which “Peptide exchange” value does the source give for “266 (QLTEMLPSI; listed as Homo sapiens) [compound 266]” here?
A: “++++” (≥75% = ++++)

Q: With “267 (SLLETGSDLLL; listed as Homo sapiens) [compound 267]” as the substance, how does the “Peptide exchange” value read?
A: “+++” (≥50 = +++)

Q: “268 (VLFPLPTPL; listed as Homo sapiens) [compound 268]” was tested. Which “Peptide exchange” value did it give?
A: “++++” (≥75% = ++++)

Q: Which “Peptide exchange” value does the source give for “269 (VLQNVAFSV; listed as Homo sapiens) [compound 269]” here?
A: “++++” (≥75% = ++++)

Q: For “270 (VVVDSDSLAFV; listed as Homo sapiens) [compound 270]”, which “Peptide exchange” value is on record?
A: “++++” (≥75% = ++++)

Q: “271 (YLLDQPVLEQRL; listed as Homo sapiens) [compound 271]” was tested. Which “Peptide exchange” value did it give?
A: “++++” (≥75% = ++++)

Q: For “272 (KLDHTLSQI; listed as Homo sapiens) [compound 272]”, which “Peptide exchange” value is on record?
A: “++++” (≥75% = ++++)

Q: With “273 (AILLPQPPK; listed as Homo sapiens) [compound 273]” as the substance, how does the “Peptide exchange” value read?
A: “++” (≥20% = ++)

Q: How did the “Peptide exchange” value turn out when “274 (KLLNLISKL; listed as Homo sapiens) [compound 274]” was run?
A: “++++” (≥75% = ++++)

Q: With “275 (KLMDLEDCAL; listed as Homo sapiens) [compound 275]” as the substance, how does the “Peptide exchange” value read?
A: “++++” (≥75% = ++++)
